According to the supplement of paper PMC10065799, “High-throughput profiling of sequence recognition by tyrosine kinases and SH2 domains using bacterial peptide display” (eLife, 2023):

Columns and labels:
AncSZ = test: phosphorylation enrichment, bacterial display (enrichment ratio); higher = better substrate or ligand; peptides without Tyr show the background
EPHB1 = EPHB1 (UniProt P54762); test: as above
EPHB2 = EPHB2 (UniProt P29323); test: as above
FGFR1 = FGFR1 (UniProt P11362); test: as above
Chain of FGFR1 (P11362 whole entry, looked up): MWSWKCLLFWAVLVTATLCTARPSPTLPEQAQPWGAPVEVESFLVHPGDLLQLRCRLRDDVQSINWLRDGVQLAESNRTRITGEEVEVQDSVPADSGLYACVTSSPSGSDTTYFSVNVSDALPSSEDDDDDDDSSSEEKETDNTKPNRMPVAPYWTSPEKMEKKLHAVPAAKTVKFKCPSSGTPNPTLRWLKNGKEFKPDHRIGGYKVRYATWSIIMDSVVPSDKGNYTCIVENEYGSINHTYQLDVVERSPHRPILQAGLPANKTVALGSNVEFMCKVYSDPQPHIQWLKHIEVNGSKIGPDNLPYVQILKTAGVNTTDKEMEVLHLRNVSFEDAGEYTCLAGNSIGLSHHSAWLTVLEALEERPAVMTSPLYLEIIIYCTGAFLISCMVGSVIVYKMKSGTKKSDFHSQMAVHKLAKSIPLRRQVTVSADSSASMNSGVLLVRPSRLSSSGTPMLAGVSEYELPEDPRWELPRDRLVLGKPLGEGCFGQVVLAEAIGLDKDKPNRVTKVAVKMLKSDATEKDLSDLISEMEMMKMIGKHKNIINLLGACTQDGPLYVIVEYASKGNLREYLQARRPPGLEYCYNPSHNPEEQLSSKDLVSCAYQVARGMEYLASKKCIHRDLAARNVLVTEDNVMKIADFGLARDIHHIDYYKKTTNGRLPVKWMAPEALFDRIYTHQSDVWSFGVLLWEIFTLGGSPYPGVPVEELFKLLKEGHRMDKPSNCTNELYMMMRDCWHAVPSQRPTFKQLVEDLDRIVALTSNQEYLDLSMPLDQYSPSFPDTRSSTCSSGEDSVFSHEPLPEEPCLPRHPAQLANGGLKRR

FGFR3 = FGFR3 (UniProt P22607); test: as above
Chain of FGFR3 (P22607 whole entry, looked up): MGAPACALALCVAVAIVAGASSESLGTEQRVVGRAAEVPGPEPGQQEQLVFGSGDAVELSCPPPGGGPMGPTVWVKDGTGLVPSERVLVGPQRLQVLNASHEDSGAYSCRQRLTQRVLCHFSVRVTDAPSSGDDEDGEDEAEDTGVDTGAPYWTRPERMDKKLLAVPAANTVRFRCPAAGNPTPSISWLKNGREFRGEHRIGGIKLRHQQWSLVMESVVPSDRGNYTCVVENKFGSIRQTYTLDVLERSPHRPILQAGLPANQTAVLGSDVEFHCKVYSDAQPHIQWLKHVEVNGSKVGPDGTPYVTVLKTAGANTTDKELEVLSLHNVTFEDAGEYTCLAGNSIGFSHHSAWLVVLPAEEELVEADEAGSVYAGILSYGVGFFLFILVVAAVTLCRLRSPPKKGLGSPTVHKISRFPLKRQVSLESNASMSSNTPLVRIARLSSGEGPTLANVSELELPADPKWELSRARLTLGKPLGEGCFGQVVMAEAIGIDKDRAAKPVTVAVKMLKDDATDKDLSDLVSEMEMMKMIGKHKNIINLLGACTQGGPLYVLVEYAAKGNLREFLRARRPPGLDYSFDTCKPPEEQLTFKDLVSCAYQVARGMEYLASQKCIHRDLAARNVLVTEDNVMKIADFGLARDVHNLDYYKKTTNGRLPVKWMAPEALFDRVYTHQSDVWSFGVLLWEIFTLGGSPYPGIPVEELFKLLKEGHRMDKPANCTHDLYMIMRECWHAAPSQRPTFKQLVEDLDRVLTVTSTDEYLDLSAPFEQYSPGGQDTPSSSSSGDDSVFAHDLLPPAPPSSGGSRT

Fer (mouse) = test: as above
Fes = Fes (UniProt P07332); test: as above
Fyn = Fyn (UniProt P06241); test: as above
Chain of Fyn (P06241 whole entry, looked up): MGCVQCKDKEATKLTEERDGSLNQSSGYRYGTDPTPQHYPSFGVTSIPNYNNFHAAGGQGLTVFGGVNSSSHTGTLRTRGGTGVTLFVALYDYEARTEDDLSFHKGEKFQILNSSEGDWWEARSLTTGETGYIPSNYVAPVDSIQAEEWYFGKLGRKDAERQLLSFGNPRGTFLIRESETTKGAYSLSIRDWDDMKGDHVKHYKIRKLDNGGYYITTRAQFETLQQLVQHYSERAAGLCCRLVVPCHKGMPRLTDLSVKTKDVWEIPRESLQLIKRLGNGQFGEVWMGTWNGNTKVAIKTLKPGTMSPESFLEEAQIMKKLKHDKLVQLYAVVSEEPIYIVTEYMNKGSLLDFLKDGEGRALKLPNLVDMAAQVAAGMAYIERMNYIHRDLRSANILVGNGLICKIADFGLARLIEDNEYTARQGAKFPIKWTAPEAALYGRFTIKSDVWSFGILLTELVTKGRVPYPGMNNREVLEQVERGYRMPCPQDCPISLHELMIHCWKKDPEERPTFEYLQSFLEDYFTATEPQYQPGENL

Hck = Hck (UniProt P08631); test: as above
Chain of Hck (P08631 whole entry, looked up): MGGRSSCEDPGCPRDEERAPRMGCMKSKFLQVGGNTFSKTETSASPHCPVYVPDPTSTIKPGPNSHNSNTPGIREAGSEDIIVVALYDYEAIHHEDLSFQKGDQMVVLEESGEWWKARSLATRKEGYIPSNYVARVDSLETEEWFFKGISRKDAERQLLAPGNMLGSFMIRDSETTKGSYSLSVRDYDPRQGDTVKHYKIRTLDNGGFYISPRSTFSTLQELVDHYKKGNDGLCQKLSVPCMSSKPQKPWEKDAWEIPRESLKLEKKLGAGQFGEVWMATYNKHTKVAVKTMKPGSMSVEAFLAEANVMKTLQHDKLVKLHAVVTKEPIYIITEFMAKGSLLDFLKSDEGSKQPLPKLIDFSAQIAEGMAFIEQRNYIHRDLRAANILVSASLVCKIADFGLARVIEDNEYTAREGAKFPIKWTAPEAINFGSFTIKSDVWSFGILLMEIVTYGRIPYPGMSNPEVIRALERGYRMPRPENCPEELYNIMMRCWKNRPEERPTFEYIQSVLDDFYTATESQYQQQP

Jak2 = Jak2 (UniProt O60674); test: as above
MERTK = MERTK (UniProt Q12866); test: as above
Chain of MERTK (Q12866 whole entry, looked up): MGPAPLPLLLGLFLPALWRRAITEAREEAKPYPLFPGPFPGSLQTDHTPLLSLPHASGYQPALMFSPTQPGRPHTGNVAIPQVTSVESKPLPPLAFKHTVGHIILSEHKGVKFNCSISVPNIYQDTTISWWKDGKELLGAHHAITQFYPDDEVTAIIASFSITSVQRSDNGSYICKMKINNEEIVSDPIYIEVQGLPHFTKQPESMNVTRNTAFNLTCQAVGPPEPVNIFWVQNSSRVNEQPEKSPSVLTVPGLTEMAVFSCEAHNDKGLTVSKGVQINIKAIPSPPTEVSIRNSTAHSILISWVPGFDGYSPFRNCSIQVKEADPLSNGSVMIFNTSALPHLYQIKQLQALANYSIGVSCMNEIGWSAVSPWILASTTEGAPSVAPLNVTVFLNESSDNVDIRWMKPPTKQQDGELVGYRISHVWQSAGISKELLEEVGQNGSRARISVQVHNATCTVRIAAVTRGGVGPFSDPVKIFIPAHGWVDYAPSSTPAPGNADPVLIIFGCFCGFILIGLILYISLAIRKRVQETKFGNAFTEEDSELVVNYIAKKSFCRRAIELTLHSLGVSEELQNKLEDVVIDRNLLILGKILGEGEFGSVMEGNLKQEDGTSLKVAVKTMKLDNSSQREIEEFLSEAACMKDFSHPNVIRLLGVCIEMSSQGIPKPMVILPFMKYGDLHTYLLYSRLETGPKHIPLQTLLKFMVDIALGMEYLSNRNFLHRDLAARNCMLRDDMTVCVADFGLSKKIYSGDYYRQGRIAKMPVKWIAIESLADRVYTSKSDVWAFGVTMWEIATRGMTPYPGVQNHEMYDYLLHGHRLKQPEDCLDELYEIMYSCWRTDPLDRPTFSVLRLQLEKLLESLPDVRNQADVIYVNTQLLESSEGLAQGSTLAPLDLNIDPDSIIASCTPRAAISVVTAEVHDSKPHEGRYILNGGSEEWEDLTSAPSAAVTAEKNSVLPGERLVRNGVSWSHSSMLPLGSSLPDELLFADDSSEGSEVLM

c-Abl (mouse) = test: as above
c-Src = test: as above
Grb2 SH2 = Grb2 SH2 (UniProt P62993); test: SH2 binding enrichment of the phosphorylated peptide, bacterial display (enrichment ratio); higher = better substrate or ligand; peptides without Tyr show the background
SHP2-C SH2 = test: as above
c-Src SH2 = test: as above
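Wherever SH2 binding enrichment of the phosphorylated peptide, bacterial display is given: peptide library displayed on the E. coli surface as eCPX fusions, selected cells deep-sequenced, score is each peptide's frequency after selection divided by its frequency in the input.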
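Wherever phosphorylation enrichment, bacterial display is given: 11-residue human phosphosite peptides and single-mutation variants displayed on the E. coli surface, counted by deep sequencing, each peptide's frequency after selection divided by its frequency in the unselected input library; frequency after pTyr selection over input frequency; kinase dosed for 20-30% of maximal phosphorylation in three min.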

Chain of EPHB2 (P29323 whole entry, looked up): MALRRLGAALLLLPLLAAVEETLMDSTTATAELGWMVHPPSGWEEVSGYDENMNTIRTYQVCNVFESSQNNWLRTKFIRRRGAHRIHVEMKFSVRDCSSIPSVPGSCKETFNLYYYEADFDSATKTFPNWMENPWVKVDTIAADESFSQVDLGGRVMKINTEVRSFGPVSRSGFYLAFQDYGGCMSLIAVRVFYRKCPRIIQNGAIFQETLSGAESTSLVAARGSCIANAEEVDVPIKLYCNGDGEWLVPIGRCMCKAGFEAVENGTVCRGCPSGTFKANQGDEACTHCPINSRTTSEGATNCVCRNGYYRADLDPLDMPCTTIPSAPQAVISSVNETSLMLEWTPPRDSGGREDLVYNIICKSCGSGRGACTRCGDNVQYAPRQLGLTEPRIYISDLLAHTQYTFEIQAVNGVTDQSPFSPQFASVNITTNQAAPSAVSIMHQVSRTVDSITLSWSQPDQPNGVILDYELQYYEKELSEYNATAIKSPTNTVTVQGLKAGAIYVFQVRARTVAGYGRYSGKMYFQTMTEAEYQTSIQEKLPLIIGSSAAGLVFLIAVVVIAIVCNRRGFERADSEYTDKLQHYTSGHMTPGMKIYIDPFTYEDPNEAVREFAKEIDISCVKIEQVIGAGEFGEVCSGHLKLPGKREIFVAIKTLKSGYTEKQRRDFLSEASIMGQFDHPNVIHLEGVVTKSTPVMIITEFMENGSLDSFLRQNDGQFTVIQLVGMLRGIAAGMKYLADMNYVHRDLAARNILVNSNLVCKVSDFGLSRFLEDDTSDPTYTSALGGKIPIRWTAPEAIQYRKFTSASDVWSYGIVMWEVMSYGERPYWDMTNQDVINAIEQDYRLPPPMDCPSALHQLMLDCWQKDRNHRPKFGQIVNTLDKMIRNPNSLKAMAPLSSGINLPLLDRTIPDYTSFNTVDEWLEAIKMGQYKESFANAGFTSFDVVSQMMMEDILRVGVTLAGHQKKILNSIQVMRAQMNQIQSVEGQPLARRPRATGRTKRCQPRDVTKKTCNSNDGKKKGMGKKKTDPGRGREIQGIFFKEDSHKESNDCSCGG

| Sequence | SH2 binding enrichment (Grb2 SH2) | SH2 binding enrichment (SHP2-C SH2) | SH2 binding enrichment (c-Src SH2) | phosphorylation enrichment (AncSZ) | phosphorylation enrichment (EPHB1) | phosphorylation enrichment (EPHB2) | phosphorylation enrichment (FGFR1) | phosphorylation enrichment (FGFR3) | phosphorylation enrichment (Fer (mouse)) | phosphorylation enrichment (Fes) | phosphorylation enrichment (Fyn) | phosphorylation enrichment (Hck) | phosphorylation enrichment (Jak2) | phosphorylation enrichment (MERTK) | phosphorylation enrichment (c-Abl (mouse)) | phosphorylation enrichment (c-Src) |
| --- | --- | --- | --- | --- | --- | --- | --- | --- | --- | --- | --- | --- | --- | --- | --- | --- |
| NARGLYYKLHN [GATA2_Y376_C373R] | 1.02 | 0.866 | 1.23 | 1.11 | 0.595 | 0.586 | 1.08 | 1.02 | 0.496 | 0.975 | 0.572 | 0.954 | 2.12 | 2.59 | 0.874 | 0.695 |
| NCFKFYMSDDI [ATRX_Y204_YF] | 0.973 | 0.721 | 0.689 | 1.2 | 0.605 | 0.53 | 0.565 | 0.745 | 0.521 | 1.23 | 0.386 | 0.512 | 1.17 | 0.394 | 0.95 | 0.447 |
| NCFKYYMSDDI [ATRX_Y204] | 0.97 | 0.799 | 1.52 | 1.33 | 0.748 | 0.625 | 0.959 | 0.931 | 0.496 | 1.51 | 0.491 | 0.548 | 1.32 | 0.562 | 1.17 | 0.811 |
| NCLREYVAGRF [CRB1_Y711] | 0.915 | 0.684 | 0.531 | 0.702 | 0.469 | 0.554 | 0.53 | 0.51 | 0.417 | 0.891 | 0.487 | 0.411 | 0.91 | 0.461 | 0.651 | 0.555 |
| NDHHFYLEGTL [ALDOB_Y223_V222F] | 0.787 | 0.745 | 0.67 | 0.939 | 0.497 | 0.547 | 0.489 | 0.696 | 0.498 | 1.19 | 0.398 | 0.43 | 0.964 | 0.409 | 0.646 | 0.392 |
| NELTYYCYKKD [CD59_Y87_C89Y] | 0.728 | 0.505 | 0.482 | 1.81 | 0.804 | 0.826 | 2.1 | 1.98 | 0.692 | 1.51 | 3.84 | 4.17 | 2 | 1.77 | 5.45 | 4.48 |
| NHQYDYTFDWT [CSNK1A1_Y294] | 1.07 | 0.561 | 3 | 1.38 | 0.606 | 0.767 | 3.99 | 2.67 | 0.569 | 0.991 | 0.66 | 0.543 | 0.899 | 1.04 | 0.646 | 1.62 |
| NPSFNYEIVNR [DYNC1H1_Y3379_YF] | 0.825 | 0.753 | 0.574 | 1.15 | 2.91 | 1.29 | 0.488 | 0.666 | 0.514 | 1.19 | 0.445 | 0.535 | 1.1 | 0.387 | 0.588 | 0.388 |
| NSNAAYEESHF [LRIF1_Y714_Q716E] | 0.792 | 0.608 | 1.23 | 0.849 | 0.483 | 0.499 | 0.443 | 0.614 | 0.504 | 0.919 | 0.434 | 0.496 | 0.87 | 0.385 | 0.659 | 0.475 |

Continued, in another order:

| SH2 binding enrichment (Grb2 SH2) | SH2 binding enrichment (SHP2-C SH2) | SH2 binding enrichment (c-Src SH2) | Sequence | phosphorylation enrichment (AncSZ) | phosphorylation enrichment (EPHB1) | phosphorylation enrichment (EPHB2) | phosphorylation enrichment (FGFR1) | phosphorylation enrichment (FGFR3) | phosphorylation enrichment (Fer (mouse)) | phosphorylation enrichment (Fes) | phosphorylation enrichment (Fyn) | phosphorylation enrichment (Hck) | phosphorylation enrichment (Jak2) | phosphorylation enrichment (MERTK) | phosphorylation enrichment (c-Abl (mouse)) | phosphorylation enrichment (c-Src) |
| --- | --- | --- | --- | --- | --- | --- | --- | --- | --- | --- | --- | --- | --- | --- | --- | --- |
| 1 | 0.748 | 0.606 | NDDDVYRSLEE [VAV2_Y142] | 1.19 | 0.6 | 0.722 | 0.608 | 0.793 | 0.526 | 1.23 | 0.53 | 0.665 | 1.24 | 0.524 | 0.898 | 0.584 |
| 0.85 | 0.902 | 0.57 | NDEDIYKGLPD [VAV3_Y141] | 1.23 | 0.727 | 0.674 | 0.584 | 0.794 | 0.534 | 1.21 | 0.879 | 0.878 | 0.947 | 0.444 | 0.802 | 0.837 |
| 0.68 | 0.546 | 0.47 | NGSFLYVIISQ [LRP1B_Y1988_R1987L] | 1.27 | 0.844 | 0.666 | 0.468 | 0.88 | 0.663 | 1.44 | 0.367 | 0.539 | 1.2 | 0.468 | 0.931 | 0.403 |
| 1.07 | 0.644 | 0.568 | NKEPRYQEEPP [TJP2_Y479_D482E] | 1.1 | 0.499 | 0.67 | 0.444 | 0.685 | 0.43 | 1.18 | 0.507 | 0.508 | 0.915 | 0.501 | 0.907 | 0.421 |
| 0.916 | 0.61 | 0.456 | NLTVNYKKNLI [SQOR_Y259] | 0.669 | 0.486 | 0.401 | 0.427 | 0.461 | 0.427 | 1.05 | 0.351 | 0.389 | 0.619 | 0.435 | 0.495 | 0.43 |
| 0.914 | 0.827 | 0.573 | NPQKSYFILLY [WAS_Y83_R86L] | 0.958 | 0.657 | 0.551 | 1.79 | 1.38 | 0.437 | 1.19 | 0.421 | 0.434 | 1.19 | 0.396 | 0.719 | 0.416 |
| 0.755 | 0.774 | 0.436 | NREGVYRVFAP [TGFBI_Y537_T538R] | 0.603 | 0.364 | 0.376 | 0.409 | 0.495 | 0.397 | 0.556 | 4.68 | 1.79 | 0.484 | 0.533 | 0.636 | 4.67 |
